Reference: PMC8472264

Molecular target: ArtB (untagged receptor-binding subunit of S. Typhimurium DT104 ArtAB) (Salmonella enterica Typhimurium DT104)
Assay: SDS-PAGE of unboiled samples

Substance: ArtB (untagged receptor-binding subunit of S. Typhimurium DT104 ArtAB) (natural protein)
- stoichiometry N: 5
